This assay deals with plasminogen. The assay can be described thus: cell-based or functional assay.

Experimental findings from EP1407030B1 are described below.

Substance “phage-displayed recombinant K2S (K2S-gp3 fusion protein on VCSM13 filamentous phage) (from UniProt P00750 209-562)” came in with a fibrinogen-dependent enzymatic activity (amidolytic assay with plasminogen and S-2251) of under 0.25 IU/ml.
